Drawing on article PMC12786276, this text covers phagocytosis of MDA-MB-231 cells by macrophages (flow cytometry) after PSFL-NK13 (4 µM, 48 h) for 2 substances.

This test deals with CD47 (endogenously expressed in MDA-MB-231 cells) (human (endogenous in MDA-MB-231)) (UniProt Q08722).
Sequence of UniProt Q08722 (Q08722 19-323): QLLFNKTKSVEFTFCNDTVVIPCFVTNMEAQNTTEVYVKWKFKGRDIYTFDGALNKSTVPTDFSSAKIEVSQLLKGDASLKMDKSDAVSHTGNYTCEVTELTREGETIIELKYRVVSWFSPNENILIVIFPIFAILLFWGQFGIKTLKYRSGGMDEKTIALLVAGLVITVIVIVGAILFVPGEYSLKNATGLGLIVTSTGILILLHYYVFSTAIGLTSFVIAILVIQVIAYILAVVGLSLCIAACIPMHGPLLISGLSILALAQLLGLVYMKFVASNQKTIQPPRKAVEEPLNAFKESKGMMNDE

In turn, “integrin αv subunit (endogenously expressed in MDA-MB-231 cells) (natural protein)” returned a phagocytosis of MDA-MB-231 cells by macrophages (flow cytometry) after PSFL-NK13 (4 µM, 48 h) of 3 fold. “integrin β3 subunit (endogenously expressed in MDA-MB-231 cells) (from UniProt P05106 27-788) (natural protein)”: the phagocytosis of MDA-MB-231 cells by macrophages (flow cytometry) after PSFL-NK13 (4 µM, 48 h) is 3 fold.
